Source: article PMC5175582

Experiments:
[1] = biological target: Biotin-labelled MMRN1 (human) (UniProt Q13201); experiment: SPR; BIAcoreX; biotin-labelled MMRN1 immobilised on streptavidin-coated sensor chips (500–1000 RU); VWF A domains perfused in HEPES-Tyrode running buffer with 0.005 % P-20; two-state conformational model for A1A2A3 and A1, 1:1 Langmuir model for A3; apparent affinity
[2] = biological target: full-length wild-type (WT)-VWF (UniProt P04275); experiment: ELISA; modified ELISA; MMRN1 immobilised; WT-VWF (1 µg/ml) added simultaneously with collagen peptide (250 μg/ml, no preincubation with VWF); treatment of VWF not stated for this panel

Chain of Biotin-labelled MMRN1 (human) (Q13201 20-1228): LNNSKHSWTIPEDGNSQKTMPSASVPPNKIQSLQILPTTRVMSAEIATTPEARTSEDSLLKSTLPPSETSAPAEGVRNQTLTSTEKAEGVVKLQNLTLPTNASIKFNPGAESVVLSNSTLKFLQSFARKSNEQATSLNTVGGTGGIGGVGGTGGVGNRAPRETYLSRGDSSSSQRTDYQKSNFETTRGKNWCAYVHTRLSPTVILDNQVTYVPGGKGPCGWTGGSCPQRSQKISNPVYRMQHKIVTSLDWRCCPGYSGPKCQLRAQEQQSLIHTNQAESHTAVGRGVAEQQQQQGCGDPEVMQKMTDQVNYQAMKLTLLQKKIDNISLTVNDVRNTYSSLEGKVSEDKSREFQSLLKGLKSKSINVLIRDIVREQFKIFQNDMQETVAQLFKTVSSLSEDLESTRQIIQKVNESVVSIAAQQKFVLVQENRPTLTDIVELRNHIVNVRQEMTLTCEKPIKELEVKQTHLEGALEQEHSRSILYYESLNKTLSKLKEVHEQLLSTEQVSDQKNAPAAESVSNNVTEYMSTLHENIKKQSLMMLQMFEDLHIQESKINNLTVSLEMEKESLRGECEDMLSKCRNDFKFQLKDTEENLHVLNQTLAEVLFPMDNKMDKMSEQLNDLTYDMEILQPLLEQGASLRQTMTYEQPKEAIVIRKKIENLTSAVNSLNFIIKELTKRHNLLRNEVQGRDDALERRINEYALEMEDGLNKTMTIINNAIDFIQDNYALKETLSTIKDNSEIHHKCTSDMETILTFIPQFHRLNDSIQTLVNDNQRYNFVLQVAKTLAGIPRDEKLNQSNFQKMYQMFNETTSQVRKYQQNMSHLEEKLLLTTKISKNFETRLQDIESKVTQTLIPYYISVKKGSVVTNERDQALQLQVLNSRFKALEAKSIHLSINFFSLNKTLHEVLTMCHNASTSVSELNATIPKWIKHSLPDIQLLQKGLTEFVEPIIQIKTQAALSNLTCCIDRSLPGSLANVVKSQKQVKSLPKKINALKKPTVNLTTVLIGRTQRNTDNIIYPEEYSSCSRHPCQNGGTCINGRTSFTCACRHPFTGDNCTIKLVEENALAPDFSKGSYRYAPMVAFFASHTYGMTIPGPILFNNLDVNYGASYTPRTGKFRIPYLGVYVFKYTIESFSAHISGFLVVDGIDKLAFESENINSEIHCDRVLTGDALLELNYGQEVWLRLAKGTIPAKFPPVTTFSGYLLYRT

Kd [1] [nM]	ka1 (two-state model, first step) [1] [M⁻¹ s⁻¹]	ka2 (two-state model, second step) [1] [s⁻¹]	kd1 (two-state model, first step) [1] [s⁻¹]	kd2 (two-state model, second step) [1] [s⁻¹]	percent reduction of WT-VWF binding to immobilised MMRN1 [2] [%]	Substance
39.3	1.2e+06	0.01	0.13	0.0032	–	Monomeric VWF A1 domain (domain or fragment)
–	–	–	–	–	70	Triple-helical type III collagen peptide GPRGQOGVMGFO
